Laboratory results taken from patent publication US20230212587A1, “Mutant Hydroxyphenylpyruvate Dioxygenase Polypeptide, Encoding Gene Thereof and Use Therefor” (Beijing Dabeinong Biotechnology Co., Ltd., priority 2019, published 2023).
Changes are numbered by the printed parent chain. Names may count otherwise.

B1: TaHPPDm-F372A-02: Triticum aestivum HPPD mutant F372A, SEQ ID NO: 42 (protein)
chain: MPPTPTTPAATGAGAAAAVTPEHARPRRMVRFNPRSDRFHTLSFHHVEFWCADAASAAGRFAFALGAPLAARSDLSTGNSVHASQLLRSGNLAFLFTAPYANGCDAATASLPSFSADAARRFSADHGLAVRSIALRVADAAEAFRASVDGGARPAFSPVDLGRGFGFAEVELYGDVVLRFVSHPDGTDVPFLPGFEGVSNPGAVDYGLTRFDHVVGNVPELASAAAYVAGFTGFHEFAEFTTEDVGTAESGLNSMVLANNSEGVLLPLNEPVHGTKRRSQIQTFLEHHGGPGVQHIAVASSDVLRTLREMRARSAMGGFDFLPPPLPKYYEGVRRIAGDVLSEAQIKECQELGVLVDRDDQGVLLQIATKPVGDRPTLFLEMIQRIGCMEKDERGEEYQKGGCGGFGKGNFSELFKSIEDYEKSLEAKQSAAVQGS
modifications: TaHPPDm-F372A Amino Acid Sequence
B2: N3HPPDm-F372A-02: Burkholderia sp. N3 HPPD mutant F372A, SEQ ID NO: 162 (protein)
chain: MQIPNWENPVGTDGFEFIEYTAPDPKALGQLFERMGFTAIARHRHKDVTVYRQGDINFIINAEPHSFAQRFARLHGPSICAIAFRVQDAAKAYQHALELGAWGFDNKTGPMELNIPAIKGIGDSLIYFVDRWRGKNGAQPGAIGDISIYDVDFEPIAGANPNPAGHGLTYIDHLTHNVHRGRMQEWAEFYERLFNFREVRYFDIEGKVTGVKSKAMTSPCGKIRIPINEEGSDTAGQIQEYLDAYHGEGIQHIALGTNDIYGAVDGLRGKEVKLLDTIDTYYELVDRRVPDHGESLDELKKRKILIDGARDDLLLQIATENQIGPIFFEIIQRKGNQGFGEGNFKALFESIELDQIRRGVVQDKA
modifications: N3HPPDm-F372A Amino Acid Sequence
B3: N4HPPD-02: native Burkholderia sp. N4 HPPD, SEQ ID NO: 165 (protein)
chain: B2 chain with H65D, N160T, N258S, A318F, N343T
modifications: N4HPPD Amino Acid Sequence (Burkholderia)
B4: N4HPPDm-F372A-02: Burkholderia sp. N4 HPPD mutant F372A, SEQ ID NO: 168 (protein)
chain: B2 chain with H65D, N160T, N258S, N343T
modifications: N4HPPDm-F372A Amino Acid Sequence
B5: N5HPPD-02: native Sphingobium sp. N5 HPPD, SEQ ID NO: 171 (protein)
chain: MAADSENPLGLHGFAFAEFTSPDPAAMARQFEQLGFVPAARRKDRGLTLYRQGRIAFILNAGEGEQASAFRAAHGPSANGMAFNVADAKAAHRHAIQSGATDADTAQSALPGTYAIEGIGDSLLYLVDSDPFADWDEVPGWREASAERGVGLDLLDHLTHNVRRGQMRVWSEFYATLFGFEEQKFFDIKGQATGLFSQAMIAPDHEIRIPLNESQDDNSQIEEFIREYNGEGIQHLALTTPDIYSTVEKLRANGVRLQDTIDTYYDLVDERVPGHGEDLARLRKNRILIDGDVHDEGLLLQIFTETMFGPIFFEIIQRKGNEGFGNGNFQVLFESIELDQIRRGVVTVDA
modifications: N5HPPD Amino Acid Sequence (Burkholderia)
B6: N5HPPDm-F372A-02: Sphingobium sp. N5 HPPD mutant F372A, SEQ ID NO: 174 (protein)
chain: B5 chain with F303A
modifications: N5HPPDm-F372A Amino Acid Sequence
B7: BdHPPD-02: native Brachypodium distachyon HPPD, SEQ ID NO: 45 (protein)
chain: MPPPATTAAPAAAAVTPEHARPPRRVARVNPRSDRFSALSFHHVELWCADAASAAGRFSFALGAPPAARSDLSTGNSAHASILLRSGSLAFLFTAPYAPSPASDSAASIPSFSASAARQFTADHGGLAVRAVALRVSSASDAFHASVSAGARPSFPPADLGQGFALAEVELYGDVVLRFISHPDENTEIPFLPGFESVSNPGASTYGLTRFDHVVGNVPSLAPVAAYIAGFTGFHEFAEFTAEDVGTADSGLNSVVLANNSERVLLPLNEPVHGTKRRSQIQTYLDHHGGPGVQHIALASDDVLRTLREMRARSAMGGFEFLAPPPPNYYDGVRRRAGDVLSEAQIKECQELGVLVDRDDQGVLLQIFTKPVGDRPTLFLEMIQRIGCMEKDEIGQEQQKGGCGGFGKGNFSELFRSIEEYEKSLEAKQSAVVQES
modifications: Brachypodium distachyon; BdHPPD Amino Acid Sequence

Test system: Arabidopsis thaliana T1 plants
Assay: Topramezone tolerance of transgenic Arabidopsis thaliana T1 plants (pesticide damage grade by bleached leaf area, score, resistance evaluation)
Type: in vivo
Details: HPPDs from different species; number of plants (of 16) in this grade; topramezone 25 g ai/ha (1x), 7 DAT
Outline: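 Eighteen days after sowing, wild-type and HPPD-transgenic T1 Arabidopsis receive a topramezone spray at 1×, 2× or 4× field rate (25–100 g ai/ha) or water. Seven days later each plant is graded by its proportion of bleached leaf area.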

Row | Molecule | Classification and statistics of pesticide damage grade Grade 0 | Classification and statistics of pesticide damage grade Grade 1 | Classification and statistics of pesticide damage grade Grade 2 | Classification and statistics of pesticide damage grade Grade 3
1 | B1 | 16 | 0 | 0 | 0
2 | B2 | 16 | 0 | 0 | 0
3 | B3 | 5 | 6 | 5 | 0
4 | B4 | 16 | 0 | 0 | 0
5 | B5 | 6 | 6 | 4 | 0
6 | B6 | 16 | 0 | 0 | 0
7 | B7 | 0 | 0 | 0 | 16

Same assay, conditions: HPPDs from different species; number of plants (of 16) in this grade; topramezone 100 g ai/ha (4x), 7 DAT

Row | Molecule | Classification and statistics of pesticide damage grade Grade 0 | Classification and statistics of pesticide damage grade Grade 1 | Classification and statistics of pesticide damage grade Grade 2 | Classification and statistics of pesticide damage grade Grade 3
8 | B1 | 15 | 1 | 0 | 0
9 | B2 | 12 | 4 | 0 | 0
10 | B3 | 0 | 8 | 2 | 6
11 | B4 | 12 | 4 | 0 | 0
12 | B5 | 0 | 7 | 5 | 4
13 | B6 | 13 | 3 | 0 | 0
14 | B7 | 0 | 0 | 0 | 16

Same assay, conditions: HPPDs from different species; score for pesticide damage 0-100; topramezone 25 g ai/ha (1x), 7 DAT

Row | Molecule | Scores
15 | B1 | 0
16 | B2 | 0
17 | B3 | 33
18 | B4 | 0
19 | B5 | 21
20 | B6 | 0
21 | B7 | 100

Same assay, conditions: HPPDs from different species; score for pesticide damage 0-100; topramezone 100 g ai/ha (4x), 7 DAT

Row | Molecule | Scores
22 | B1 | 2
23 | B2 | 8
24 | B3 | 63
25 | B4 | 8
26 | B5 | 60
27 | B6 | 6
28 | B7 | 100

Same assay, conditions: HPPDs from different species; topramezone 25 g ai/ha (1x), 7 DAT

Row | Molecule | Resistance evaluation
29 | B1 | highly resistant (highly resistant plants (scores 0-15))
30 | B2 | highly resistant (highly resistant plants (scores 0-15))
31 | B3 | moderately resistant (moderately resistant plants (scores 16-33))
32 | B4 | highly resistant (highly resistant plants (scores 0-15))
33 | B5 | moderately resistant (moderately resistant plants (scores 16-33))
34 | B6 | highly resistant (highly resistant plants (scores 0-15))
35 | B7 | non-resistant (non-resistant plants (scores 68-100))

Same assay, conditions: HPPDs from different species; topramezone 100 g ai/ha (4x), 7 DAT

Row | Molecule | Resistance evaluation
36 | B1 | highly resistant (highly resistant plants (scores 0-15))
37 | B2 | highly resistant (highly resistant plants (scores 0-15))
38 | B3 | poorly resistant (poorly resistant plants (scores 34-67))
39 | B4 | highly resistant (highly resistant plants (scores 0-15))
40 | B5 | poorly resistant (poorly resistant plants (scores 34-67))
41 | B6 | highly resistant (highly resistant plants (scores 0-15))
42 | B7 | non-resistant (non-resistant plants (scores 68-100))
